Patent US20240425571A1, “GLYCOPROTEIN A REPETITIONS PREDOMINANT (GARP)-BINDING ANTIBODIES AND USES THEREOF” (OHIO STATE INNOVATION FOUNDATION, priority 2021, published 2024)

System: Ag(−) cell
Assay: FACS analysis with Ag(−) cell (non-specific binding)
Conditions: 5 ug/ml
Procedure: Methods—FACS analysis. Cell preparation: Cell were harvested and washed with PBS+2% FBS for one time. Cell density was adjusted to 1.5E6/mL in PBS/2% FBS. Cell were added to 96 U-bottom well plates at 100 μL/well. Antibody samples preparation: Antibody in supernatant was adjusted to 10 μg/mL using PBS+2% FBS, with serial 5 times dilution performed to obtain 3 concentrations of antibody solution. The blank was PBS+2% FBS. Antibody solutions were placed into 96 U-bottom well plates at 100 μL/well in the same arranging pattern as the cell preparation. Incubation: The antibody samples (100 μl) were mixed with the cells (100 μl), and incubated at RT for 1 h, then centrifuged the plate for 3 min at 1000 rpm (swing bucket). The supernatant was pipetted and the cells were washed with PBS+2% FBS for one time. Incubation with the secondary antibody: Cy3-Conjugated AffiniPure Goat Anti-Human IgG was diluted 250× by PBS+2% FBS, and added to the 96 U-bottom well plate with 100 μl/well, then incubated at RT for 30 min. After that, the plate was centrifuged at 1000 rpm for 3 min and the supernatant was pipetted out. The cell was washed with PBS+2% FBS twice. Cells were re-suspended in 200 μl PBS+2% FBS and analyzed on FACS. The MFI of total live cells were used as binding signal.
Methods—heat treatment. Culture supernatant was serial diluted to the indicated concentration of IgG with cell media and heated at 70° C. for 5 mins on a PCR machine, then quickly cooled down to room temperature.

| Molecule | FACS with Ag(−) cell (MFI) (Heating) | FACS with Ag(−) cell (MFI) (Non-Heating) |
| --- | --- | --- |
| H2L3: humanized PIIO-1 antibody, VH SEQ ID NO: 21 and VL SEQ ID NO: 22 (antibody, V domains shown) VH: QVQLQESGPGLVKPSQTLSLTCTVSGYSITSDYAWNWIRQFPGNKLEWMGYISYSGSTSYTPSLKSRITISRDTSKNHFFLKLSSVTAADTAVYYCAKSGGDYYGSSSYWYFDVWGQGTMVTVSS VL: DIVLTQSPSSLAVSAGERVTMSCKSSQSLLNSRSQKNYLAWYQQKPGQPPKLLIYGASTRGSGVPDRFSGSGSGTDFTLTISSVQAEDVAVYYCQNDHSYPFTFGSGTKLEIKR | 3.35 | 3.18 |
| H3L2: humanized PIIO-1 antibody, VH SEQ ID NO: 19 and VL SEQ ID NO: 24 (antibody, V domains shown) VH: DVQLQESGPGLVKPSQTLSLTCTVSGYSITSDYAWNWIRQFPGNKLEWMGYISYSGSTSYTPSLKSRITISRDTSKNHFFLKLSSVTAADTATYYCAKSGGDYYGSSSYWYFDVWGQGTTVTVSS VL: DIVLTQSPSSLAVSLGERVTMNCKSSQSLLNSRSQKNYLAWYQQKPGQPPKLLIYGASTRGSGVPDRFSGSGSGTDFTLTISSVQAEDVAVYYCQNDHSYPFTFGQGTKLEIKR | 3.26 | 3.37 |
| H3L1: humanized PIIO-1 antibody, VH SEQ ID NO: 19 and VL SEQ ID NO: 23 (antibody, V domains shown) VH: DVQLQESGPGLVKPSQTLSLTCTVSGYSITSDYAWNWIRQFPGNKLEWMGYISYSGSTSYTPSLKSRITISRDTSKNHFFLKLSSVTAADTATYYCAKSGGDYYGSSSYWYFDVWGQGTTVTVSS VL: DIVLTQSPSSLAVSLGERATMNCKSSQSLLNSRSQKNYLAWYQQKPGQPPKLLIYGASTRGSGVPDRFSGSGSGTDFTLTISSLQAEDVAVYYCQNDHSYPFTFGQGTKLEIKR | 3.4 | 3.28 |
| H2L2: humanized PIIO-1 antibody, VH SEQ ID NO: 21 and VL SEQ ID NO: 24 (antibody, V domains shown) VH: QVQLQESGPGLVKPSQTLSLTCTVSGYSITSDYAWNWIRQFPGNKLEWMGYISYSGSTSYTPSLKSRITISRDTSKNHFFLKLSSVTAADTAVYYCAKSGGDYYGSSSYWYFDVWGQGTMVTVSS VL: DIVLTQSPSSLAVSLGERVTMNCKSSQSLLNSRSQKNYLAWYQQKPGQPPKLLIYGASTRGSGVPDRFSGSGSGTDFTLTISSVQAEDVAVYYCQNDHSYPFTFGQGTKLEIKR |  | 3.24 |
| H4L2: humanized PIIO-1 antibody, VH SEQ ID NO: 18 and VL SEQ ID NO: 24 (antibody, V domains shown) VH: DVQLQESGPGLVKPSQTLSLTCTVSGYSITSDYAWNWIRQFPGNKLEWMGYISYSGSTSYTPSLKSRITISRDTSKNHFFLQLSSVTAEDTATYYCAKSGGDYYGSSSYWYFDVWGQGTTVTVSS VL: DIVLTQSPSSLAVSLGERVTMNCKSSQSLLNSRSQKNYLAWYQQKPGQPPKLLIYGASTRGSGVPDRFSGSGSGTDFTLTISSVQAEDVAVYYCQNDHSYPFTFGQGTKLEIKR | 3.29 | 3.26 |
| H4L1: humanized PIIO-1 antibody, VH SEQ ID NO: 18 and VL SEQ ID NO: 23 (antibody, V domains shown) VH: DVQLQESGPGLVKPSQTLSLTCTVSGYSITSDYAWNWIRQFPGNKLEWMGYISYSGSTSYTPSLKSRITISRDTSKNHFFLQLSSVTAEDTATYYCAKSGGDYYGSSSYWYFDVWGQGTTVTVSS VL: DIVLTQSPSSLAVSLGERATMNCKSSQSLLNSRSQKNYLAWYQQKPGQPPKLLIYGASTRGSGVPDRFSGSGSGTDFTLTISSLQAEDVAVYYCQNDHSYPFTFGQGTKLEIKR | 3.25 | 3.11 |
| H1L3: humanized PIIO-1 antibody, VH SEQ ID NO: 20 and VL SEQ ID NO: 22 (antibody, V domains shown) VH: QVQLQESGPGLVKPSQTLSLTCTVSGYSITSDYAWNWIRQFPGNKLEWMGYISYSGSTSYTPSLKSRVTISRDTSKNHFSLKLSSVTAADTAVYYCAKSGGDYYGSSSYWYFDVWGQGTMVTVSS VL: DIVLTQSPSSLAVSAGERVTMSCKSSQSLLNSRSQKNYLAWYQQKPGQPPKLLIYGASTRGSGVPDRFSGSGSGTDFTLTISSVQAEDVAVYYCQNDHSYPFTFGSGTKLEIKR | 3.33 | 3.22 |
| H3L3: humanized PIIO-1 antibody, VH SEQ ID NO: 19 and VL SEQ ID NO: 22 (antibody, V domains shown) VH: DVQLQESGPGLVKPSQTLSLTCTVSGYSITSDYAWNWIRQFPGNKLEWMGYISYSGSTSYTPSLKSRITISRDTSKNHFFLKLSSVTAADTATYYCAKSGGDYYGSSSYWYFDVWGQGTTVTVSS VL: DIVLTQSPSSLAVSAGERVTMSCKSSQSLLNSRSQKNYLAWYQQKPGQPPKLLIYGASTRGSGVPDRFSGSGSGTDFTLTISSVQAEDVAVYYCQNDHSYPFTFGSGTKLEIKR | 3.29 | 3.16 |
| H4L3: humanized PIIO-1 antibody, VH SEQ ID NO: 18 and VL SEQ ID NO: 22 (antibody, V domains shown) VH: DVQLQESGPGLVKPSQTLSLTCTVSGYSITSDYAWNWIRQFPGNKLEWMGYISYSGSTSYTPSLKSRITISRDTSKNHFFLQLSSVTAEDTATYYCAKSGGDYYGSSSYWYFDVWGQGTTVTVSS VL: DIVLTQSPSSLAVSAGERVTMSCKSSQSLLNSRSQKNYLAWYQQKPGQPPKLLIYGASTRGSGVPDRFSGSGSGTDFTLTISSVQAEDVAVYYCQNDHSYPFTFGSGTKLEIKR | 3.36 | 3.27 |
